# Assay results reported in patent US20160108110A1 (Novartis, published 2016).
# Positions count from the first letter of the chain named.
# T1: Human ANGPTL4(26-406)-FLAG-His6-Avi (human, UniProt Q9BY76 24-406, biotin on the C-terminal Avi tag in the biotinylated preparations (immobilised form in SET, ELISA and Octet))
# T1 construct: also called full-length human ANGPTL4; hANGPTL4
# T1 sequence: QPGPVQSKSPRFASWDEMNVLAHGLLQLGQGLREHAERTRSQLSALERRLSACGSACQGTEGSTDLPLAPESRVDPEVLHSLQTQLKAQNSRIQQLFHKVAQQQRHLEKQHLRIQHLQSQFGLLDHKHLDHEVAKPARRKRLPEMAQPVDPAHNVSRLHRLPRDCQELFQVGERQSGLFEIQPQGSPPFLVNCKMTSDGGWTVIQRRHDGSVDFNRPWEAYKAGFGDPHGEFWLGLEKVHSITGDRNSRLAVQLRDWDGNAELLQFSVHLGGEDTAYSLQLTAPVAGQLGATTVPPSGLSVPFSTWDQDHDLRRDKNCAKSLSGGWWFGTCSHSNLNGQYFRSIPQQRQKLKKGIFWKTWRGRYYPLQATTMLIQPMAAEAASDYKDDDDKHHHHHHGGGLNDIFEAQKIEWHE
# B1: MOR023419 (antibody, V domains shown)
# VH: QVQLLESGGGLVQPGGSLRLSCAASGFTFSDYALHWVRQAPGKGLEWVSRITYTGVYTGYADSVKGRFTISRDNSKNTLYLQMNSLRAEDTAVYYCAREHYYSSPMGGVAVDNWGQGTLVTVSS
# VL: DIVLTQPPSVSGAPGQRVTISCSGSSSNIGYNTVSWYQQLPGTAPKLLIYSNNIRPSGVPDRFSGSKSGTSASLAITGLQAEDEADYYCSSWDFLIKSLVFGGGTKLTVL
# notes: as MOR023415: built on parent Fab MOR021798, limits derived
# B2: MOR023420 (antibody, V domains shown)
# VH: B1 VH with T52S, T54M, V56S, Y57S, G59Y
# VL: B1 VL with S90G, W92F, F94W, L95V, I96T, K97S, S98H, L99V
# notes: built on parent Fab MOR021798 with LCDR3 residues 90-99 of the VL replaced (last LCDR3 residue V kept)
# B3: MOR023403 (antibody, human IgG1, kappa, V domains shown)
# VH: EVQLLESGGGLVQPGGSLRLSCAASGFTFSSYWMHWVRQAPGKGLEWVSVINLGSQAKYAGSVKGRFTISRDNSKNTLYLQMNSLRAEDTAVYYCARDSYIYDLHWGFDNWGQGTLVTVSS
# VL: DIQMTQSPSSLSASVGDRVTITCRASQDISSYLNWYQQKPGKAPKLLIYAASRLQSGVPSRFSGSGSGTDFTLTISSLQPEDFATYYCQQSYTHPYTFGQGTKVEIKR
# notes: as MOR023400: built on MOR022771, limits derived; the printed CDR is one residue shorter than the parent stretch
# B4: MOR023404 (antibody, human IgG1, kappa, V domains shown)
# VH: B3 VH with N52P, L53Y, G54M, S55G, Q56T, G61D
# VL: B3 VL
# notes: as for B3
# B5: MOR022764 (antibody, human IgG1, lambda, V domains shown)
# VH: EVQLVQSGAEVKKPGESLKISCKGSGYSFSTYWISWVRQMPGKGLEWMGIIDPSQSDTRYSPSFQGQVTISADKSISTAYLQWSSLKASDTAMYYCARVYGYVYMDVWGQGTLVTVSS
# VL: SYELTQPLSVSVALGQTARITCSGDNLGKKYAYWYQQKPGQAPVLVIYDKTKRPSGIPERFSGSNSGNTATLTISRAQAGDEADYYCASYDWYSSSYVFGGGTKLTVLG
# notes: human IgG1
# B6: MOR022766 (antibody, human IgG1, lambda, V domains shown)
# VH: B5 VH with Q55N, S56T
# VL: B5 VL
# notes: human IgG1
# B7: MOR022768 (antibody, human IgG1, kappa, V domains shown)
# VH: EVQLLESGGGLVQPGGSLRLSCAASGFTFSSYYLHWVRQAPGKGLEWVSYISGSGSSTYYADSVKGRFTISRDNSKNTLYLQMNSLRAEDTAVYYCARERSYAHDHWGQGTLVTVSS
# VL: B3 VL with S30Y, S31I, Y32D, R53K, S91G, T93F, H94L, Y96Q
# notes: human IgG1
# B8: MOR022767 (antibody, human IgG1, kappa, V domains shown)
# VH: B7 VH with S54E
# VL: B3 VL with S30Y, S31I, Y32D, R53K, S91G, T93F, H94L, Y96Q
# notes: human IgG1
# B9: MOR022769 (antibody, human IgG1, kappa, V domains shown)
# VH: B7 VH with S54D, G55A
# VL: B3 VL with S30Y, S31I, Y32D, R53K, S91G, T93F, H94L, Y96Q
# notes: human IgG1
# B10: MOR022771 (antibody, human IgG1, kappa, V domains shown)
# VH: EVQLLESGGGLVQPGGSLRLSCAASGFTFSSYWMHWVRQAPGKGLEWVSGISYSGSSTNYADSVKGRFTISRDNSKNTLYLQMNSLRAEDTAVYYCARDSYIYDLHWGFDNWGQGTLVTVSS
# VL: B3 VL
# notes: human IgG1
# B11: MOR022772 (antibody, human IgG1, kappa, V domains shown)
# VH: B10 VH with S54D, G55A
# VL: B3 VL
# notes: human IgG1
# B12: MOR022761 (antibody, human IgG1, lambda, V domains shown)
# VH: QVQLVQSGAEVKKPGSSVKVSCKASGGTFQSYAISWVRQAPGQGLEWMGGIIPLFGFANYAQKFQGRVTITADESTSTAYMELSSLRSEDTAVYYCARESYDPYAFDVWGQGTLVTVSS
# VL: SYELTQPLSVSVALGQTARITCSGDNLGKYSASWYQQKPGQAPVLVIHQDNNRPSGIPERFSGSNSGNTATLTISRAQAGDEADYYCASRAHSMHVVFGGGTKLTVLG
# notes: human IgG1
# B13: MOR022762 (antibody, human IgG1, lambda, V domains shown)
# VH: B12 VH with Q30S
# VL: B12 VL
# notes: human IgG1
# Target: T1, Human ANGPTL4(26-406)-FLAG-His6-Avi
# Experiment: SET assay
# Description: (§1) SET assays were performed as follows. In a 96-well polypropylene plate, a constant concentration of ANGPTL4 antibody was mixed with different concentrations of non-biotinylated human, cyno, mouse, or rat full-length ANPGLT4 protein, or human ANGPTL4 N-terminal domain protein (5-fold serial dilution) and incubated at 22° C. for 14 hours with constant shaking (300 rpm). On a pre-blocked 384-well streptavidin-coated Meso Scale Discovery (MSD) plate biotinylated ANGPTL4 (full-length human, cyno, mouse, or rat ANGPTL4, or human ANGPTL4 N-terminal domain) protein (1 nM, 15 μL per well) was immobilized and washed thereafter.
# (§2) The equilibrium binding reactions (15 μL per well) were applied to the MSD plate with immobilized ANGPTL4 and incubated for 20 min at 22° C. The unbound material was removed by washing the plate 3 times with wash buffer, and the captured antibody was detected by adding Sulfo-tagged goat anti-human IgG (Meso Scale Discovery). After washing MSD read buffer T was added and the plate was developed using a Sector Imager 6000 (Meso Scale Discovery). The data were transferred to Microsoft Excel for analysis and plotted using GraphPad Prism v6. The KD values were determined by fitting the data to the following equation: […]
# (§3) where Bₘₐₓ is the signal when no ANGPTL4 protein is present in solution, CAb is the constant concentration of ANGPTL4 antibody in solution, CAg is the concentration of ANGPTL4 in solution, and KD is the equilibrium dissociation constant.
row,Kd,Binder
1,2 pM,B1
2,1 pM,B2
3,3 pM,B3
4,8 pM,B4

# Target: T1, Human ANGPTL4(26-406)-FLAG-His6-Avi
# Experiment: cell-based or functional assay
row,Reversal of human ANGPTL4 inhibition of human LPL EC50,Binder
1,3000 pM,B5
2,3000 pM,B6
3,2000 pM,B7
4,2000 pM,B8
5,2000 pM,B9
6,4000 pM,B10
7,5000 pM,B11
8,11000 pM,B12
9,4000 pM,B13

# Target: T1, Human ANGPTL4(26-406)-FLAG-His6-Avi
# Experiment: SET assay (solution equilibrium titration, MSD), IgG
# Description: as §1, §2, §3
row,Kd,Binder
1,7 pM,B5
2,5 pM,B6
3,4 pM,B7
4,19 pM,B8
5,5 pM,B9
6,29 pM,B10
7,53 pM,B11
8,189 pM,B12
9,107 pM,B13
